Data reported in patent publication US20240219403.

Molecular target: T1, NF1 GAP-related domain (GRD) (UniProt P21359)
T1 sequence: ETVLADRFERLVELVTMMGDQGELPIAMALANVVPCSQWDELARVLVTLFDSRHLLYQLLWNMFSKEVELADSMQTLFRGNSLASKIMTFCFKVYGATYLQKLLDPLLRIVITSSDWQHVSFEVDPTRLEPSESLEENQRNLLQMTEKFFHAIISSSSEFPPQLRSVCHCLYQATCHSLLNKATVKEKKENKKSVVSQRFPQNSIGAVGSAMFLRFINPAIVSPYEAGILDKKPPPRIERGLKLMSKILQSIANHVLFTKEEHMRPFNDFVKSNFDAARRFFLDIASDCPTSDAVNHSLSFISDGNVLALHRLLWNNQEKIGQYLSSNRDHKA

purified KRAS^WT loaded with GTP
GTP hydrolysis by KRAS^WT: conventional RAS-GAPs (such as NF1), which potently enhance hydrolysis by KRAS^WT (FIG. 3B: NF1>>RGS3)
